This is an account of results in publication doi:10.1101/2021.12.29.474442, “Microtubule plus-end regulation by centriolar cap proteins” (bioRxiv, 2021).

Series [1] addresses T1, CPAP-CC1 (residues 89-196) (human, UniProt Q9HC77 89-196).
T1 construct: CPAP (CENPJ), human, residues 89-196 (coiled-coil domain CC1); Cleaved with HRV 3C (PreScission site); also called CPAP 89-196; source: E. coli BL21(DE3), purified (Ni-NTA, tag cleavage, SEC); not shown: thioredoxin, N-terminal, cleaved; His6, N-terminal, cleaved
T1 sequence (looked up): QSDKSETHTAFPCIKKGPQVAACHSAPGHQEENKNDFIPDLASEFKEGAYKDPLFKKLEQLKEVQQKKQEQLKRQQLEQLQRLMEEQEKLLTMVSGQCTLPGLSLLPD
The experiment in a line: cross-linking; zero-length cross-linker DMTMM (60 mM, 6 min, 25°C) followed by mass spectrometry (xQuest). Particulars: both partners purified.

Series [2] deals with the molecule itself. The series can be described thus: SEC-MALS; 20°C, Superdex S75 or S200 10/30, 20 mM HEPES pH 7.5, 150 mM NaCl, 2 mM DTT; about 7 mg/ml loaded; proteins alone and equimolar (also 2:1, 3:1) mixtures. In general terms: In gel filtration, larger molecules generally elute earlier.
Series [3] concerns the molecule itself. The experiment in a line: single-molecule fluorescence intensity counting (TIRF); single molecules immobilised on coverslips in MRB80 buffer; intensity compared with purified GFP (monomers) and GFP-EB3 (dimers).

For orientation: stoichiometry N means the number of molecules, sites or subunits per partner or assembly.

B1: CP110-CC2 (residues 635-717) (domain or fragment, human, UniProt O43303-2 635-717, looked up)
chain: GTSSKESEELLKSKMLAFEEMRKRLEEQHAQQLSLLIAEQEREQERLQKEIEEQEKMLKEKKAMTAEASELDINNAVELEWRK
notes: CP110, human, residues 635-717 (coiled-coil domain CC2); Homodimer alone by SEC-MALS; one chain of it stands in the heterodimer with CPAP-CC1; source: E. coli BL21(DE3), purified (Ni-NTA, tag cleavage, SEC); not shown: thioredoxin, N-terminal, cleaved; His6, N-terminal, cleaved
Turning to B1, in series [1], the binding result is on record as “binds”. Also, the “stoichiometry N” value in series [2] was 2.

B2: CEP97^CP110-GFP-SII (chimera of CEP97 1-650 and CP110 581-991) (other, human, UniProt Q8IW35 1-650, looked up)
chain: MAVARVDAALPPGEGSVVNWSGQGLQKLGPNLPCEADIHTLILDKNQIIKLENLEKCKRLIQLSVANNRLVRMMGVAKLTLLRVLNLPHNSIGCVEGLKELVHLEWLNLAGNNLKAMEQINSCTALQHLDLSDNNISQIGDLSKLVSLKTLLLHGNIITSLRMAPAYLPRSLAILSLAENEIRDLNEISFLASLTELEQLSIMNNPCVMATPSIPGFDYRPYIVSWCLNLRVLDGYVISQKESLKAEWLYSQGKGRAYRPGQHIQLVQYLATVCPLTSTLGLQTAEDAKLEKILSKQRFHQRQLMNQSQNEELSPLVPVETRASLIPEHSSPVQDCQISQESEPVIQVNSWVGINSNDDQLFAVKNNFPASVHTTRYSRNDLHLEDIQTDEDKLNCSLLSSESTFMPVASGLSPLSPTVELRLQGINLGLEDDGVADESVKGLESQVLDKEEEQPLWAANENSVQMMRSEINTEVNEKAGLLPCPEPTIISAILKDDNHSLTFFPESTEQKQSDIKKPENTQPENKETISQATSEKLPMILTQRSVALGQDKVALQKLNDAATKLQACWRGFYARNYNPQAKDVRYEIRLRRMQEHIVCLTDEIRRLRKERDEERIKKFVQEEAFRFLWNQVRSLQVWQQTVDQRLSSWHFEKVKRRLDLDIDGLQKENCPYVITSGITEQERQHLPEKRYPKGSGFVNKNKMLGTSSKESEELLKSKMLAFEEMRKRLEEQHAQQLSLLIAEQEREQERLQKEIEEQEKMLKEKKAMTAEASELDINNAVELEWRKISDSSLLETMLSQADSLHTSNSNSSGFTNSAMQYSFVSANEAPFYLWGSSTSGLTKLSVTRPFGRAKTRWSQVFSLEIQAKFNKITAVAKGFLTRRLMQTDKLKQLRQTVKDTMEFIRSFQSEAPLKRGIVSAQDASLQERVLAQLRAALYGIHDIFFVMDAAERMSILHHDREVRKEKMLRQMDKMKSPRVALSAATQKSLDRKKYMKAAEMGMPNKKFLVKQNPSETRVLQPNQGQNAPVHRLLSRQGSICRKNPKKAAKCCDNLRRQHSLG
notes: CEP97, human, N-terminal amino acids 1-650; A dimer by single-molecule fluorescence intensity; No linker between the two parts is told. pTT5 based vector (Addgene #52355 is the vector); also called CEP97-CP110 chimera; CP110-CEP97 fusion
On to B2, for which the “stoichiometry N” value in series [3] is 2.
